Reference: patent US20220332804A1 (CSL INNOVATION, published 2022)

Key:
Experiment in all cases: SPR, KD relative to WT C2;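 also: biacore SPR at 37 °C, anti-C2 mAbs captured on anti-human IgG chips with alanine or serine point mutants of C2 as analyte, KD from 1:1 fit compared with wild-type C2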
human C2 D454A = target: T1, human C2 D454A (human, UniProt P06681 21-752)
T1 sequence: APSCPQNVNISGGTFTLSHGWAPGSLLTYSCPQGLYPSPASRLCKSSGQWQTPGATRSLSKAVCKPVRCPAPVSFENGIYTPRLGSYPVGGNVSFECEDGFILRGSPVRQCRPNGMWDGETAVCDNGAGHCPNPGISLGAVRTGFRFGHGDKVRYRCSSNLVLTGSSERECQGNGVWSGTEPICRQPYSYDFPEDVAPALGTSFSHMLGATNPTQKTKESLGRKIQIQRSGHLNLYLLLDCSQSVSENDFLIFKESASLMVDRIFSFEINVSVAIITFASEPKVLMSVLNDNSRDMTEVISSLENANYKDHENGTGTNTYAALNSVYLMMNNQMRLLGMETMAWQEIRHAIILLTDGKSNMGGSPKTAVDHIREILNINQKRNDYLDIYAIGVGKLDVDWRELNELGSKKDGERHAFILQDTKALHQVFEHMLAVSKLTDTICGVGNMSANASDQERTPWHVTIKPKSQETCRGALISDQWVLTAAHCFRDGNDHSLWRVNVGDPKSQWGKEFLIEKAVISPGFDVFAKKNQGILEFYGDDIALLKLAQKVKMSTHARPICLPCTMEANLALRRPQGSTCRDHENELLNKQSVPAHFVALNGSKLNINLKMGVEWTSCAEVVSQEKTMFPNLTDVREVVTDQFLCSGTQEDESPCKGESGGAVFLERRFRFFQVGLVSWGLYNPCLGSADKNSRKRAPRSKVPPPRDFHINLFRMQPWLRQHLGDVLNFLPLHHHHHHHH

human C2 R434A = target: T2, human C2 R434A (human, UniProt P06681 21-752)
T2 sequence: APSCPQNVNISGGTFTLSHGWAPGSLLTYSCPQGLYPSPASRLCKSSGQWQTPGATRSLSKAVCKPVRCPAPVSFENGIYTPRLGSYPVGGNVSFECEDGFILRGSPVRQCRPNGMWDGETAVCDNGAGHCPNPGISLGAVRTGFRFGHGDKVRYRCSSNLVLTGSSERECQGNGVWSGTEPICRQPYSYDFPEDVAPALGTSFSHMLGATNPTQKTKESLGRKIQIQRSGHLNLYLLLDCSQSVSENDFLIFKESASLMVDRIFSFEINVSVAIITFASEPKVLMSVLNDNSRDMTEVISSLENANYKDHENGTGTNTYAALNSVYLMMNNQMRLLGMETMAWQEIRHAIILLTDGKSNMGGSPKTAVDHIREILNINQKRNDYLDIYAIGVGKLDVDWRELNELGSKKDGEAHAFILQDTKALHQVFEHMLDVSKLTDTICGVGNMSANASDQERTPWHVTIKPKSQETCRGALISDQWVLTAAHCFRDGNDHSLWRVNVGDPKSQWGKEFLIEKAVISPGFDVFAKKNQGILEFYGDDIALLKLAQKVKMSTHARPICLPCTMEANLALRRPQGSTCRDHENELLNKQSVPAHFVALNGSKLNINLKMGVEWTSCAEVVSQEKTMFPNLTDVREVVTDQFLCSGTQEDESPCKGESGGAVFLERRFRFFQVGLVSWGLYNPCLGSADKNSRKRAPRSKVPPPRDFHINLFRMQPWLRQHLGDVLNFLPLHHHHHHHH

human C2 K457A = target: T3, human C2 K457A (human, UniProt P06681 21-752)
T3 sequence: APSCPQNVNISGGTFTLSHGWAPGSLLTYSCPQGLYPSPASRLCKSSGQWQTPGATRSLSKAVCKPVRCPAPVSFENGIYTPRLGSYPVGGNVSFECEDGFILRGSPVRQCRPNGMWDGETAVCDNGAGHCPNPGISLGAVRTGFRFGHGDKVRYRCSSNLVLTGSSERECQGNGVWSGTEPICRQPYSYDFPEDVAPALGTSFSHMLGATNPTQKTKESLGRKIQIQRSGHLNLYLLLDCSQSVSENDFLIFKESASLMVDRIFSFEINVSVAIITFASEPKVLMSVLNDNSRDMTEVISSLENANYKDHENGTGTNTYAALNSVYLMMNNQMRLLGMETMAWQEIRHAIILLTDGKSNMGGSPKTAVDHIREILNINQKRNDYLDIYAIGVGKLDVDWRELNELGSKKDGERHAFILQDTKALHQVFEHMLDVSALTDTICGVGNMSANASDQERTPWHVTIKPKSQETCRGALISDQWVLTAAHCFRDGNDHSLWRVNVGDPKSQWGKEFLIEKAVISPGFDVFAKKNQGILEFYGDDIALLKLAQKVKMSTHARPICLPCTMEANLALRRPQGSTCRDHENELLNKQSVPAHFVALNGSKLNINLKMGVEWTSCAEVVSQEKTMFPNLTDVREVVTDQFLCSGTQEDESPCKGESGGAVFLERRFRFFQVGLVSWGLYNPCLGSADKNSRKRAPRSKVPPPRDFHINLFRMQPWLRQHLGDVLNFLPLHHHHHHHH

human C2 R688A = target: T4, human C2 R688A (human, UniProt P06681 21-752)
T4 sequence: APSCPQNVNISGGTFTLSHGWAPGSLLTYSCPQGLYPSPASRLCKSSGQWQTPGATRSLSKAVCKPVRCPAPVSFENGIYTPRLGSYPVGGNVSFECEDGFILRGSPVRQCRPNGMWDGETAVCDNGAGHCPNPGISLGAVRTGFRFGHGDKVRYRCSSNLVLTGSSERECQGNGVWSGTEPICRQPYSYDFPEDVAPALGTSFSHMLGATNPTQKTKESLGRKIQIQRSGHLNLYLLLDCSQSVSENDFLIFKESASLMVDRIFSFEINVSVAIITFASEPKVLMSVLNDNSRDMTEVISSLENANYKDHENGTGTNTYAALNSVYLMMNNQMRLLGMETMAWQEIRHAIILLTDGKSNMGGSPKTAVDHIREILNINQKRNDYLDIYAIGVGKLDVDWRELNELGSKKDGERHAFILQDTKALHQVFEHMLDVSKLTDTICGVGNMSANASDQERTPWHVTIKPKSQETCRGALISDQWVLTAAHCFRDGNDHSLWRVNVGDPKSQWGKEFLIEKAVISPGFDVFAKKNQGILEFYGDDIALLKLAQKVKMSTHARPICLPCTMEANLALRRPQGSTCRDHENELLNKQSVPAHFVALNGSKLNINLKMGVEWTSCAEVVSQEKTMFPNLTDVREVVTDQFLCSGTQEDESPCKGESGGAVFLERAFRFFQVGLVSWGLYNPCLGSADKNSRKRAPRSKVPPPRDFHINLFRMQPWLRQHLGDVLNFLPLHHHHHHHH

B1: RF16-242 (antibody, human IgG4 S228P, lambda, V domains shown)
VH: EVQLLQSGAEVKKPGESLKISCKGSGYSFTSYWIGWVRQMPGKGLEWMGIIYPGDSDTRYSPSFQGQVTISADKSISTAYLQWSSLKASDTAMYYCARRGHYGDYFDYWGQGTLVTVSS
VL: SYELTQPPSVSVSPGQTARITCSGDALPKKYAYWYHQKSGQAPVLVIYEDRRRPSEIPERFSGSSSGTMATLTITGAQVEDEGVYFCYSRDRAGNQRVFGGGTQLTVLG
notes: pH-dependent anti-C2 antibody from a phage display library
Fold diff (human C2 D454A): 5 fold | Fold diff (human C2 R434A): 14 fold | Fold diff (human C2 K457A): 33 fold | Fold diff (human C2 R688A): 2 fold
